According to PMC2649980 (Proteins, 2009):

Target: the molecule itself
Test: SEC

B1: D355R TRβ LBD (human thyroid hormone receptor beta ligand binding domain, a.a. 209-461, D355R), TRIAC-bound (domain or fragment, UniProt P10828 209-461, looked up)
chain: GHKPEPTDEEWELIKTVTEAHVATNAQGSHWKQKRKFLPEDIGQAPIVNAPEGGKVDLEAFSHFTKIITPAITRVVDFAKKLPMFCELPCEDQIILLKGCCMEIMSLRAAVRYDPESETLTLNGEMAVTRGQLKNGGLGVVSDAIFRLGMSLSSFNLDDTEVALLQAVLLMSSDRPGLACVERIEKYQDSFLLAFEHYINYRKHHVTHFWPKLLMKVTDLRMIGACHASRFLHMKVECPTELFPPLFLEVFED
- stoichiometry N: 2
